In patent publication US20250109193A1 (FLAGSHIP PIONEERING INNOVATIONS VI, published 2025):

T1: cynomolgus monkey TSLP (cynomolgus monkey)
T1 construct: Recombinant, bought (ACROBiosystems); also called cynoTSLP; cyno TSLP
T1 chain: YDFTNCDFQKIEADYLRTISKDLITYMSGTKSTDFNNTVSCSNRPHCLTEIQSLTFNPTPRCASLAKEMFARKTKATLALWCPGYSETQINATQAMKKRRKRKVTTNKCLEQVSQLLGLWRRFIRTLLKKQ

T2: mouse TSLP (mouse, UniProt Q9JIE6 20-140)
T2 construct: also called mouse TSLP cytokine
T2 sequence (looked up): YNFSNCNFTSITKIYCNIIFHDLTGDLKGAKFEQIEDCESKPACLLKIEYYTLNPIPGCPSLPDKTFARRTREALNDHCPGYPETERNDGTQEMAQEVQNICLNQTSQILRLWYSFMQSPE


Assays:
[1] = biological target: T3, human thymic stromal lymphopoietin (TSLP) (human, UniProt Q969D9 29-159); experiment: KinExA, solution equilibrium, 25 C
T3 construct: also called hTSLP; human TSLP
Protocol: The solution equilibrium binding experiments were performed using KinExA 3200 instrument equipped with an autosampler (Sapidyne Instruments, Boise, ID, USA). All analyses were performed at 25° C., and all samples were prepared in 1× phosphate-buffered saline (PBS) filtered buffer supplemented with 1 mg/mL bovine serum albumin (BSA) and 0.02% sodium azide. […] The beads were washed with blocking buffer (1 M Tris supplemented with 10 mg/mL BSA, pH 8.0) and rocked for 1 hour.
The sample injection volumes and flow rates were varied depending upon the antibody tested. […] The concentration, volume and flow rate of the secondary antibody were varied to achieve a signal at less than 1.0 V.
A 1:1 binding equilibrium model was used with the titrant selected as the reference concentration. The drift correction option was used where appropriate.

[2] = biological target: T3, human thymic stromal lymphopoietin …; experiment: indirect ELISA, coated recombinant hTSLP
Protocol: The next day, the plate was washed three times with ELISA Wash Buffer (PBS-Tween 0.5%), blocked with 1×ELISA assay diluent (BioLegend) for one hour. […] The plate was washed three times with ELISA Wash Buffer, and horseradish peroxidase (HRP)-conjugated anti-human IgG Fc secondary antibody (Promega, Madison, WI) at 1:2000 dilution in 1×ELISA assay diluent was added to detect binding of the primary antibody to the antigen. The plate was incubated for 30 minutes at 37° C. with the secondary detection antibody, then the plate was washed and developed with tetramethyl benzidine (TMB) substrate solution (Thermo Fisher Scientific, Waltham, MA). The HRP enzymatic reaction was stopped after about 1 minute with acidic stop solution (Thermo Fisher Scientific), and the absorbance at 450 nm was determined using a standard plate reader. The EC₅₀ values were calculated by fitting a four-parameter non-linear regression line to the average of two technical replicates per concentration.

[3] = biological target: T3, human thymic stromal lymphopoietin …; experiment: blocking ELISA: antibody titrated against hTSLP-biotin, coated hTSLPR/hIL-7Rα-Fc
Protocol: A 96 well half area flat bottom plate was coated with 50 μL of recombinant heterodimeric human TSLPR and human IL-7Rα Fe tagged fusion protein (2 μg/mL) in ELISA coating buffer. The plate was incubated overnight at 4° C. and was washed thrice with 150 μL ELISA Wash Buffer (1×PBS-Tween 0.5%) the next day. The plate was blocked with 50 μL of ELISA assay diluent for one hour at 37° C. and was washed three times with 150 μL of ELISA wash buffer. […] The ELISA plate was incubated for 1 hour at 37° C. followed by washing three times with ELISA wash buffer. HRP-Streptavidin (Thermo Fisher Scientific) was diluted 1:2000 in ELISA assay diluent 50 μl was added to each well and incubated for 30 minutes at 37° C. followed by washing three times with ELISA wash buffer. The ELISA was developed by addition of 50 μL of TMB substrate (Thermo Fisher Scientific) and incubation for 2-3 minutes at room temperature (protected from light). The reaction was stopped with acidic stop solution (Thermo Fisher Scientific), and the absorbance was read at 450 nm wavelength using a standard plate reader. Percent inhibition of signal and IC₅₀ values were determined.
A blocking ELISA was performed by coating an ELISA plate with hTSLPR overnight. […] The ELISA plate was incubated for 1 hour at 37° C., followed by washing of the plate. […] The ELISA was developed with TMB substrate, and the HRP enzymatic reaction was stopped with sulfuric acid solution.

[4] = biological target: T3, human thymic stromal lymphopoietin …; experiment: indirect ELISA, coated human TSLP; 95% CI in brackets
Protocol: (§1) The next day, the plates were washed three times with ELISA wash buffer and blocked with ELISA assay diluent B (BioLegend) for one hour at room temperature (RT). […] Antibody binding was assessed using an 8-point titration curve in triplicates (1:3 serial dilution starting at 10 μg/mL). The plate was washed three times with ELISA wash buffer, and HRP-conjugated anti-human IgG-HRP secondary antibody (Jackson ImmunoResearch Laboratories, Inc.) was added to wells at a 1:5000 dilution in 1×ELISA assay diluent. Secondary antibody was added to detect binding of the primary antibody to the antigen. The plate was incubated for 30 minutes at room temperature with the secondary detection antibody, then the plates were washed three times with ELISA wash buffer and developed with TMB substrate solution (Invitrogen, Waltham, MA). The HRP enzymatic reaction was stopped after about 1 minute with acidic stop solution (Invitrogen), and the absorbance at 450 nm on a Biotek plate reader.
(§2) The EC₅₀ values were calculated using Graphpad Prism 9.2.0 by fitting a four-parameter non-linear regression curve to the average absorbance values of three technical replicates per concentration with three independent experiments. […] N=4 independent experiments with 3 technical replicates. […] N=3 independent experiments with 3 technical replicates.

cynomolgus monkey TSLP [5] = biological target: T1, cynomolgus monkey TSLP; experiment: indirect ELISA, coated cyno TSLP; 95% CI in brackets
Protocol: as §1, §2

cynomolgus monkey TSLP [6] = biological target: T1, cynomolgus monkey TSLP; experiment: cell-based or functional assay
[7] = biological target: T3, human thymic stromal lymphopoietin …; experiment: cell-based or functional assay
mouse TSLP = biological target: T2, mouse TSLP; experiment: direct ELISA: plate coated with 2 µg/mL mouse TSLP, anti-human IgG-HRP, absorbance at 450 nm
Protocol: as §1, §2

| Binder | Kd [1] | EC50 [2] | IC50 [3] | further results |
| --- | --- | --- | --- | --- |
| AB-8 (antibody, V domains shown) VH: QMQLVESGGGVVQPGRSLRLSCAASGFTFRTYGMHWVRQAPGKGLEWVAVIWYDGSYTHYADSVKGRFTITRDNSKNTLNLQMNSLRAEDTAVYYCARSPQWEDIFEAFDIWGQGTMVTVSS VL: SYVLTQPPSVSVAPGQTARITCGGNNIGSKSVHWYQQKPGQAPVLVVYDDSDRPSWIPERFSGSNSGNTATLTISRGEAGDEADYYCQVWDSSSSLVVFGGGTKLTVL | 0.000335 nM | – | – | – |
| AB-11 (antibody, V domains shown) VH: QMQLVESGGGVVQPGRSLRLSCAASGFTFRTYGMHWVRQAPGKGLEWVAVISYSGSYIHYADSVKGRFTITRDNSKNTLNLQMNSLRAEDTAVYYCTRSPQWEEVYEALDIWGQGTMVTVSS VL: SYVLTQPPSVSVAPGQTARITCGGNNIGSFSVHWYQQKPGQAPVLVVYDDSDRPSWIPERFSGSNSGNTATLTISRGEAGDEADYYCQVWSSTSRHVVFGGGTKLTVL | 0.000754 nM | 0.173 nM | 0.243 nM | – |
| AB-14 (antibody, V domains shown) VH: QMQLVESGGGVVQPGRSLRLSCAASGFTFRTYGMHWVRQAPGKGLEWVAVIWYDGSTKHYADSVKGRFTITRDNSKNTLNLQMNSLRAEDTAVYYCARAPQWELVHEAFDIWGQGTMVTVSS VL: SYVLTQPPSVSVAPGQTARITCGGNNIGSKNVHWYQQKPGQAPVLVVYDDSDRPSWIPERFSGSNSGNTATLTISRGEAGDEADYYCQVWDESSDEVVFGGGTKLTVL | 0.000877 nM | 0.264 nM | 0.186 nM | – |
| AB-13 (antibody, V domains shown) VH: QMQLVESGGGVVQPGRSLRLSCAASGFTFRTYGMHWVRQAPGKGLEWVAVISYDGSTKHYADSVKGRFTITRDNSKNTLNLQMNSLRAEDTAVYYCARAPQWESVYEAFDIWGQGTMVTVSS VL: SYVLTQPPSVSVAPGQTARITCGGNNLGSFSVHWYQQKPGQAPVLVVYDDSDRPSWIPERFSGSNSGNTATLTISRGEAGDEADYYCQVWDSSEDLVVFGGGTKLTVL | – | 0.23 nM | 0.223 nM | – |
| AB-9 (antibody, V domains shown) VH: QMQLVESGGGVVQPGRSLRLSCAASGFTFRTYGMHWVRQAPGKGLEWVAVIWYDGSYTHYADSVKGRFTITRDNSKNTLNLQMNSLRAEDTAVYYCARSPQWESIFEAFDIWGQGTMVTVSS VL: SYVLTQPPSVSVAPGQTARITCGGNNIGSKSVHWYQQKPGQAPVLVVYDDSDRPSWIPERFSGSNSGNTATLTISRGEAGDEADYYCQVWDSSSSLVVFGGGTKLTVL | 0.000496 nM | – | 0.227 nM | – |
| AB-12 (antibody, V domains shown) VH: QMQLVESGGGVVQPGRSLRLSCAASGFTFRTYGMHWVRQAPGKGLEWVAVVWYDGSNTHYADSVKGRFTITRDNSKNTLNLQMNSLRAEDTAVYYCARAPQWESVHEAFDIWGQGTMVTVSS VL: SYVLTQPPSVSVAPGQTARITCGGNNIGRFSVHWYQQKPGQAPVLVVYDDSDRPSWIPERFSGSNSGNTATLTISRGEAGDEADYYCQVWVSTSDKVVFGGGTKLTVL | 0.00102 nM | 0.291 nM | 0.29 nM | – |
| AB-2a (antibody, human IgG1, lambda) heavy: not shown light: SYVLTQPPSVSVAPGQTARITCGGNNIGSKSVHWYQQKPGQAPVLVVYDDSDRPSWIPERFSGSNSGNTATLTISRGEAGDEADYYCQIWDSSSSLVVFGGGTKLTVLGQPKAAPSVTLFPPSSEELQANKATLVCLISDFYPGAVTVAWKADSSPVKAGVETTTPSKQSNNKYAASSYLSLTPEQWKSHRSYSCQVTHEGSTVEKTVAPTECS | – | – | – | EC50 [4]: 0.03 µg/mL; EC80 [4]: 0.09 µg/mL; EC90 [4]: 0.15 µg/mL; EC80 (cynomolgus monkey TSLP [5]): 0.1 µg/mL; IC50, cyno TSLPR/IL-7Rα Ba/F3 STAT5-luciferase assay (cynomolgus monkey TSLP [6]): 0.03 µg/mL; IC50, human TSLPR/IL-7Rα Ba/F3 STAT5-luciferase assay [7]: 0.02 µg/mL; binding result (mouse TSLP): no binding (tested: about 5 µg/ml) |
| AB-2b (antibody, human IgG1, lambda) heavy: QMQLVESGGGVVQPGRSLRLSCAASGFTFRTYGMHWVRQAPGKGLEWVAVVWYDGSYTHYADSVKGRFTITRDNSKNTLNLQMNSLRAEDTAVYYCARSPQWEEIFEAMDIWGQGTMVTVSSASTKGPSVFPLAPSSKSTSGGTAALGCLVKDYFPEPVTVSWNSGALTSGVHTFPAVLQSSGLYSLSSVVTVPSSSLGTQTYICNVNHKPSNTKVDKRVEPKSCDKTHTCPPCPAPELLGGPSVFLFPPKPKDTLYITREPEVTCVVVDVSHEDPEVKFNWYVDGVEVHNAKTKPREEQYNSTYRVVSVLTVLHQDWLNGKEYKCKVSNKALPAPIEKTISKAKGQPREPQVYTLPPSREEMTKNQVSLTCLVKGFYPSDIAVEWESNGQPENNYKTTPPVLDSDGSFFLYSKLTVDKSRWQQGNVFSCSVMHEALHNHYTQKSLSLSPGK light: SYVLTQPPSVSVAPGQTARITCGGNNIGSKSVHWYQQKPGQAPVLVVYDDSDRPSWIPERFSGSNSGNTATLTISRGEAGDEADYYCQIWDSSSSLVVFGGGTKLTVLGQPKAAPSVTLFPPSSEELQANKATLVCLISDFYPGAVTVAWKADSSPVKAGVETTTPSKQSNNKYAASSYLSLTPEQWKSHRSYSCQVTHEGSTVEKTVAPTECS | – | – | – | EC50 [4]: 0.03 µg/mL; EC80 [4]: 0.1 µg/mL; EC90 [4]: 0.18 µg/mL; EC80 (cynomolgus monkey TSLP [5]): 0.1 µg/mL; IC50, cyno TSLPR/IL-7Rα Ba/F3 STAT5-luciferase assay (cynomolgus monkey TSLP [6]): 0.04 µg/mL; IC50, human TSLPR/IL-7Rα Ba/F3 STAT5-luciferase assay [7]: 0.03 µg/mL; binding result (mouse TSLP): no binding (tested: about 5 µg/ml) |

Now from value to binder, other results behind:

| Kd [1] | EC50 [2] | IC50 [3] | Binder | further results |
| --- | --- | --- | --- | --- |
| 0.000208 nM | 0.26 nM | – | AB-4 (antibody, V domains shown) VH: QMQLVESGGGVVQPGRSLRLSCAASGFTFRTYGMHWVRQAPGKGLEWVAVIWYSGSDTHYADSVKGRFTITRDNSKNTLNLQMNSLRAEDTAVYYCARSPQWEDIFESMDVWGQGTMVTVSS VL: SYVLTQPPSVSVAPGQTARITCGGNYIGSFSVHWYQQKPGQAPVLVVYDDSDRPSWIPERFSGSNSGNTATLTISRGEAGDEADYYCQIYVSASRLVVFGGGTKLTVL | – |
| 0.000302 nM | 0.237 nM | 0.232 nM | AB-3 (antibody, V domains shown) VH: QMQLVESGGGVVQPGRSLRLSCAASGFTFRTYGMHWVRQAPGKGLEWVAVIWYDGTYTHYADSVKGRFTITRDNSKNTLNLQMNSLRAEDTAVYYCARSPQWESIFEAFDIWGQGTMVTVSS VL: SYVLTQPPSVSVAPGQTARITCGGNNIGSKSVHWYQQKPGQAPVLVVYDDSDRPSWIPERFSGSNSGNTATLTISRGEAGDEADYYCQVWDSSSSLVVFGGGTKLTVL | – |
| 0.000123 nM | 0.204 nM | 0.29 nM | AB-2 (antibody, human IgG1, V domains shown) VH: QMQLVESGGGVVQPGRSLRLSCAASGFTFRTYGMHWVRQAPGKGLEWVAVVWYDGSYTHYADSVKGRFTITRDNSKNTLNLQMNSLRAEDTAVYYCARSPQWEEIFEAMDIWGQGTMVTVSS VL: SYVLTQPPSVSVAPGQTARITCGGNNIGSKSVHWYQQKPGQAPVLVVYDDSDRPSWIPERFSGSNSGNTATLTISRGEAGDEADYYCQIWDSSSSLVVFGGGTKLTVL | – |
| 0.000184 nM | 0.29 nM | 0.162 nM | AB-7 (antibody, V domains shown) VH: QMQLVESGGGVVQPGRSLRLSCAASGFTFRTYGMHWVRQAPGKGLEWVAVIWYSGAYIHYADSVKGRFTITRDNSKNTLNLQMNSLRAEDTAVYYCSRSPQWEDIFEAMDIWGQGTMVTVSS VL: SYVLTQPPSVSVAPGQTARITCGGNNLGSYSVHWYQQKPGQAPVLVVYDDSDRPSWIPERFSGSNSGNTATLTISRGEAGDEADYYCQVWDMSSSLVVFGGGTKLTVL | – |
| 0.000133 nM | 0.397 nM | – | AB-6 (antibody, V domains shown) VH: QMQLVESGGGVVQPGRSLRLSCAASGFTFRTYGMHWVRQAPGKGLEWVAVVWYDGSDIHYADSVKGRFTITRDNSKNTLNLQMNSLRAEDTAVYYCSRSPQWEDIFESMDIWGQGTMVTVSS VL: SYVLTQPPSVSVAPGQTARITCGGNNIGSKSVHWYQQKPGQAPVLVVYDDSDRPSWIPERFSGSNSGNTATLTISRGEAGDEADYYCQIWDSSSDHVVFGGGTKLTVL | – |
| 0.000208 nM | 0.265 nM | – | AB-1 (antibody, V domains shown) VH: QMQLVESGGGVVQPGRSLRLSCAASGFTFRTYGMHWVRQAPGKGLEWVAVVWYSGSYTHYADSVKGRFTITRDNSKNTLNLQMNSLRAEDTAVYYCSRSPQWEDIFEAMDIWGQGTMVTVSS VL: SYVLTQPPSVSVAPGQTARITCGGNNIGSKSVHWYQQKPGQAPVLVVYDDSDRPSWIPERFSGSNSGNTATLTISRGEAGDEADYYCQVWDSSSSLVVFGGGTKLTVL | – |
| 0.00014 nM | 0.264 nM | 0.246 nM | AB-5 (antibody, V domains shown) VH: QMQLVESGGGVVQPGRSLRLSCAASGFTFRTYGMHWVRQAPGKGLEWVAVVWYDGYDTHYADSVKGRFTITRDNSKNTLNLQMNSLRAEDTAVYYCSRSPQWEDIFESMDIWGQGTMVTVSS VL: SYVLTQPPSVSVAPGQTARITCGGNNLGSKSVHWYQQKPGQAPVLVVYDDSDRPSWIPERFSGSNSGNTATLTISRGEAGDEADYYCQVWDMSSDLVVFGGGTKLTVL | – |
| 0.000395 nM | 0.286 nM | 0.251 nM | AB-10 (antibody, V domains shown) VH: QMQLVESGGGVVQPGRSLRLSCAASGFTFRTYGMHWVRQAPGKGLEWVAVIWYSGTTTHYADSVKGRFTITRDNSKNTLNLQMNSLRAEDTAVYYCSRSPQWEDIFESMDIWGQGTMVTVSS VL: SYVLTQPPSVSVAPGQTARITCGGNNIGSKNVHWYQQKPGQAPVLVVYDDSDRPSWIPERFSGSNSGNTATLTISRGEAGDEADYYCQVWDSSDFLVVFGGGTKLTVL | – |
